Data: patent publication US8501487B2, “Composition for use as a peptide retention standard and a method of predicting peptide hydrophobicity in liquid chromatography” (University of Manitoba, priority 2008, dated 2013)
Where two headings read alike, the source gives them in different places.

Assays:
[1] = Isocratic RP HPLC: log k vs φ plots, UHI (acetonitrile concentration at k=10) and S slope; type: physicochemical; settings: for UHI 100 Å C18 − TFA / UHI 100 Å C18 − FA / UHI 300 Å C18 − TFA / UHI 100 Å C18 − pH 10: acetonitrile concentration (ACN %) at k=10, isocratic, in %; for UHI 100 Å C18 − TFA: 0.1% TFA; for UHI 100 Å C18 − TFA / UHI 100 Å C18 − FA / UHI 300 Å C18 − TFA: ~25° C.; for UHI 100 Å C18 − FA: 0.1% formic acid; for UHI 300 Å C18 − TFA: Vydac 218 TP C18, 0.1% TFA; for UHI 100 Å C18 − pH 10: XTerra C18, 20 mM ammonium formate pH 10, ~25° C.; for S value (slope in LSS equation): isocratic, TFA, pH 2
Description: Accordingly, in a further embodiment of the present disclosure there is included, a method of predicting hydrophobicity of a peptide: • (a) measuring retention time for each peptide of a standard peptide mixture at three or more different concentrations of acetonitrile under isocratic conditions; • (b) calculating a retention coefficient k for each peptide in the mixture and at each concentration of acetonitrile using equation (2) k=(tR−tO)/TOc (2) • wherein • tR is the retention time, • tO is system dead time, and • TOc is column dead time; • (c) for each peptide in the mixture, plotting log k vs φ, wherein φ is the acetonitrile volume fraction; • (d) for each peptide in the mixture, determining the value of φ when log k=1 and converting this to acetonitrile concentration to provide a universal hydrophobicity index (UHI); • (e) plotting retention times of each peptide vs its UHI; • (f) determining the retention time of an unknown peptide under the isocratic liquid chromatographic conditions; and • (g) determining from the plot in (e) the value of UHI that corresponds to the retention time of the unknown peptide, • wherein the UHI correlates to the hydrophobicity of the unknown peptide.
Two chromatographic setups: micro-flow 3 μl/min and “semi-micro” at 150 μl/min were employed utilizing a micro-Agilent 1100 Series system (Agilent Technologies, Wilmington, Del.) with two column sizes: 300 μm×150 mm (micro) and 1 mm×100 mm (semi-micro). The three stationary phases studied included: Vydac 218 TP C18, 300 Å pore size, 5 μm (Grace Vydac, Hesperia, Calif.); Luna C18(2) 100 Å, 5 μm (Phenomenex, Torrance, Calif.) and XTerra C18, 120 Å, 5 μm (Waters, Milford, Mass.). Three different ion-pairing systems with linear water-acetonitrile gradients were employed: 0.1% trifluoroacetic acid (TFA) in both eluents A and B (Vydac and Luna), 0.1% formic acid (FA, Luna) and 20 mM ammonium formate pH 10 (XTerra). This provided us with four different mobile/stationary phase combinations corresponding to four versions of SSRCalc model: 100 and 300 Å for TFA, 100 Å with FA and 100 Å at pH 10. Gradient separations of the 6-peptide mixture in “semi-micro” flow mode were performed in all four systems using 0.5, 1, 2 and 4% acetonitrile per minute gradient slopes.
Stock solutions of the 6 custom peptides (˜1 mg/ml) were prepared by dissolving in 1 ml of 0.1% TFA in water (20% acetonitrile for peptides #5 and 6). Ten microliters sample injection was applied for “semi-micro” conditions in both isocratic and gradient modes. Individual peptides, their mixture and the S1-S5 retention standard were diluted to provide ˜0.5-1 μg injection of each component. 214 nm UV detection was used. All chromatographic experiments were conducted at room temperature, ˜25° C. Dead volume of the column and connecting tubings was measured using injection of non-retained compound (water) and measuring elution time of negative peak. Retention coefficients for isocratic elution were calculated using the formula: k=(tR−t0)/t0c; where tR is retention time, t0 and t0c—system (column and tubings) and column dead time.
Since accurate measurement of ACN % hydrophobicity using gradient elution is problematic it is proposed to use isocratic conditions for this purpose. […] This confirms once again that peptides elute from reversed-phase sorbents within a very narrow range of acetonitrile concentration. It is clear as well that the slope of these dependencies decrease systematically as peptide hydrophobicity increase. This is the reason for narrowing ACN percentage scale for shallow gradients in FIG. 2.
It is proposed to use acetonitrile concentration at which the capacity factor of any given peptide is equal to 10 (at room temperature ˜25° C.) as a measure of peptide hydrophobicity. This value is referred to herein as peptide Universal Hydrophobicity Index (UHI), since it depends only on type of the sorbent and ion-pairing modifier. […]

[2] = rhGH tryptic digest, literature data; cited from earlier work
[3] = Gradient RP HPLC: acetonitrile concentration at elution and ACN % range covered; type: physicochemical; settings: gradient conditions (FIG. 2c), Luna C18(2), 0.1% TFA, gradient delay time 4.3 min taken into account
Description: A one percent per minute acetonitrile gradient starting from 0% was used for all separations. The retention time difference between first and last peaks on chromatograms gives direct indication of ACN % scale covered. […] Such wide coverage is very important, especially for nano- and micro-flow proteomics LC applications. While normal-flow gradient system technology is well established, in nano scale LC gradient reproducibility is harder to achieve. The correct retention time distribution of the standard peptides of the present disclosure confirms the proper development of the gradient, especially at the beginning of the chromatogram. Also note the uniform distribution of the six peaks of the peptide composition of the present disclosure throughout the chromatogram; such uniformity is rarely observed in standard peptide mixtures derived from protein digests. […]
Stock solutions of the 6 custom peptides (˜1 mg/ml) were prepared by dissolving in 1 ml of 0.1% TFA in water (20% acetonitrile for peptides #5 and 6). […] Dead volume of the column and connecting tubings was measured using injection of non-retained compound (water) and measuring elution time of negative peak. Retention coefficients for isocratic elution were calculated using the formula: k=(tR−t0)/t0c; where tR is retention time, t0 and t0c—system (column and tubings) and column dead time. […]

LGGGGGGDFR [custom synthesized standard peptide]
UHI 100 Å C18 − TFA ([1]; Luna C18(2)): 10.74 | UHI 100 Å C18 − FA ([1]; Luna C18(2)): 4.58 | UHI 300 Å C18 − TFA [1]: 8.40 | UHI 100 Å C18 − pH 10 [1]: 6.80

ISLLLIQSWLEPVQFLR [Peptide T9, tryptic digest product of recombinant human growth hormone]
S value (slope in LSS equation) [2]: 18.5

QTYSK [Peptide T14, tryptic digest product of recombinant human growth hormone]
S value (slope in LSS equation) [2]: 24.3

LLLLDFR [custom synthesized standard peptide]
UHI 100 Å C18 − TFA ([1]; Luna C18(2)): 26.07 | UHI 100 Å C18 − FA ([1]; Luna C18(2)): 18.26 | UHI 300 Å C18 − TFA [1]: 24.78 | UHI 100 Å C18 − pH 10 [1]: 24.18 | acetonitrile concentration at k=10 ([1]; isocratic conditions, Luna C18(2), TFA (FIG. 3)): 26.1% | S value (slope in LSS equation) ([1]; Luna C18(2)): 14.69 | concentration of acetonitrile required for elution [3]: 29.6%

LLGGGGDFR [custom synthesized standard peptide]
UHI 100 Å C18 − TFA ([1]; Luna C18(2)): 15.53 | UHI 100 Å C18 − FA ([1]; Luna C18(2)): 8.55 | UHI 300 Å C18 − TFA [1]: 13.35 | UHI 100 Å C18 − pH 10 [1]: 13.65

LGGGGGGDGSR [custom synthesized standard peptide]
UHI 100 Å C18 − TFA ([1]; Luna C18(2)): 3.97 | UHI 100 Å C18 − FA ([1]; Luna C18(2)): <0 | UHI 300 Å C18 − TFA [1]: 1.89 | UHI 100 Å C18 − pH 10 [1]: 1.14

LLLGGDFR [custom synthesized standard peptide]
UHI 100 Å C18 − TFA ([1]; Luna C18(2)): 20.72 | UHI 100 Å C18 − FA ([1]; Luna C18(2)): 13.08 | UHI 300 Å C18 − TFA [1]: 18.90 | UHI 100 Å C18 − pH 10 [1]: 18.29

LLLLLDFR [custom synthesized standard peptide]
UHI 100 Å C18 − TFA ([1]; Luna C18(2)): 29.58 | UHI 100 Å C18 − FA ([1]; Luna C18(2)): 21.59 | UHI 300 Å C18 − TFA [1]: 28.60 | UHI 100 Å C18 − pH 10 [1]: 28.94

ALILTLVS [peptide purchased from Bachem, singly charged at pH 2, reference compound]
S value (slope in LSS equation) ([1]; Luna C18(2)): 13.47
